Experimental data: patent US20140271457A1 (AbbVie / Abbott, published 2014)

Columns and labels:
Experiment in all cases: cell-based or functional assay
[1] = biological target: Recombinant Human TNF-α/TNFSF1A (human, UniProt P01375 77-233)
Recombinant Human β-NGF = Recombinant Human β-NGF (human, UniProt P01138 122-241)
Recombinant Human IL-13 = Recombinant Human IL-13 (human, UniProt P35225 35-146, limits assumed)
Chain of Recombinant Human IL-13 (P35225 35-146 limits assumed): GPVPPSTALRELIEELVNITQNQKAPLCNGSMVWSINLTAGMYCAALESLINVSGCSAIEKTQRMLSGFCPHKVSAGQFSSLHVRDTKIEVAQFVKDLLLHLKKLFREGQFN

Chain of Recombinant Human β-NGF (P01138 122-241 limits assumed): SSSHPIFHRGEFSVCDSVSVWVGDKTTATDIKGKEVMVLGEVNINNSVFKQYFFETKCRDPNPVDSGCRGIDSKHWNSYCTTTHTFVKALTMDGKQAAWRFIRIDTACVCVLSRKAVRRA
Chain of Recombinant Human TNF-α/TNFSF1A (P01375 77-233 limits assumed): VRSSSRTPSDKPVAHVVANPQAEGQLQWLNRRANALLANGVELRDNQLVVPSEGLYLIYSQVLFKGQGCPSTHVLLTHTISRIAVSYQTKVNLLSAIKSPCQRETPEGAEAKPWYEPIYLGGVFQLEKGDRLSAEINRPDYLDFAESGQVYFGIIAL

B1: DVD2718 (bispecific antibody, IgG1)
VH: EVQLVESGGGLVQPGGSLRLSCAASGFSLTNNNVNWVRQAPGKGLEWVGGVWAGGATDYNSALKSRFTISRDNSKNTAYLQMNSLRAEDTAVYYCARDGGYSSSTLYAMDAWGQGTLVTVSSGGGGSGGGGSEVQLVESGGGLVQPGGSLRLSCAASGFTFSNYGVTWVRQAPGKGLEWVSMIWADGSTHYASSVKGRFTISRDNSKNTLYLQMNSLRAEDTAVYYCAREWQHGPVAYWGQGTLVTVSS
VL: DIQMTQSPSSLSASVGDRVTITCRASEDIYNALAWYQQKPGKAPKLLIYNTDTLHTGVPSRFSGSGSGTDYTLTISSLQPEDFATYFCQHYFHYPRTFGQGTKVEIKRGGSGGGGSGDIQMTQSPSSLSASVGDRVTITCRASQLVSSAVAWYQQKPGKAPKLLIYWASARHTGVPSRFSGSGSGTDFTLTISSLQPEDFATYYCQQHYKTPFTFGQGTKLEIKR
C-Terminal VD huTNFα Neutralization Assay IC50 [1]: 0.249 nM
N-Terminal VD NGF Neutralization Assay IC50 (Recombinant Human β-NGF): 0.008 nM

B2: DVD2713 (bispecific antibody, IgG1)
VH: EVQLVESGGGLVQPGGSLRLSCAASGFTFSNYGVTWVRQAPGKGLEWVSMIWADGSTHYASSVKGRFTISRDNSKNTLYLQMNSLRAEDTAVYYCAREWQHGPVAYWGQGTLVTVSSGGGGSGGGGSEVQLVESGGGLVQPGGSLRLSCAASGFSLTNNNVNWVRQAPGKGLEWVGGVWAGGATDYNSALKSRFTISRDNSKNTAYLQMNSLRAEDTAVYYCARDGGYSSSTLYAMDAWGQGTLVTVSS
VL: DIQMTQSPSSLSASVGDRVTITCRASQLVSSAVAWYQQKPGKAPKLLIYWASARHTGVPSRFSGSGSGTDFTLTISSLQPEDFATYYCQQHYKTPFTFGQGTKLEIKRGGSGGGGSGDIQMTQSPSSLSASVGDRVTITCRASEDIYNALAWYQQKPGKAPKLLIYNTDTLHTGVPSRFSGSGSGTDYTLTISSLQPEDFATYFCQHYFHYPRTFGQGTKVEIKR
N-Terminal VD huTNFα Neutralization Assay IC50 [1]: 0.006 nM
C-Terminal VD NGF Neutralization Assay IC50 (Recombinant Human β-NGF): 2.9 nM

B3: DVD2714 (bispecific antibody, IgG1)
VH: EVQLVESGGGLVQPGGSLRLSCAASGFTFSNYGVTWVRQAPGKGLEWVSMIWADGSTHYASSVKGRFTISRDNSKNTLYLQMNSLRAEDTAVYYCAREWQHGPVAYWGQGTLVTVSSASTKGPEVQLVESGGGLVQPGGSLRLSCAASGFSLTNNNVNWVRQAPGKGLEWVGGVWAGGATDYNSALKSRFTISRDNSKNTAYLQMNSLRAEDTAVYYCARDGGYSSSTLYAMDAWGQGTLVTVSS
VL: DIQMTQSPSSLSASVGDRVTITCRASQLVSSAVAWYQQKPGKAPKLLIYWASARHTGVPSRFSGSGSGTDFTLTISSLQPEDFATYYCQQHYKTPFTFGQGTKLEIKRTVAAPDIQMTQSPSSLSASVGDRVTITCRASEDIYNALAWYQQKPGKAPKLLIYNTDTLHTGVPSRFSGSGSGTDYTLTISSLQPEDFATYFCQHYFHYPRTFGQGTKVEIKR
N-Terminal VD huTNFα Neutralization Assay IC50 [1]: 0.008 nM
C-Terminal VD NGF Neutralization Assay IC50 (Recombinant Human β-NGF): 6.85 nM

B4: DVD2716 (bispecific antibody, IgG1)
VH: EVQLVESGGGLVQPGGSLRLSCAASGFTFSNYGVTWVRQAPGKGLEWVSMIWADGSTHYASSVKGRFTISRDNSKNTLYLQMNSLRAEDTAVYYCAREWQHGPVAYWGQGTLVTVSSASTKGPEVQLVESGGGLVQPGGSLRLSCAASGFSLTNNNVNWVRQAPGKGLEWVGGVWAGGATDYNSALKSRFTISRDNSKNTAYLQMNSLRAEDTAVYYCARDGGYSSSTLYAMDAWGQGTLVTVSS
VL: DIQMTQSPSSLSASVGDRVTITCRASQLVSSAVAWYQQKPGKAPKLLIYWASARHTGVPSRFSGSGSGTDFTLTISSLQPEDFATYYCQQHYKTPFTFGQGTKLEIKRTVAAPSVFIFPPDIQMTQSPSSLSASVGDRVTITCRASEDIYNALAWYQQKPGKAPKLLIYNTDTLHTGVPSRFSGSGSGTDYTLTISSLQPEDFATYFCQHYFHYPRTFGQGTKVEIKR
N-Terminal VD huTNFα Neutralization Assay IC50 [1]: 0.014 nM
C-Terminal VD NGF Neutralization Assay IC50 (Recombinant Human β-NGF): 0.624 nM

B5: DVD2717 (bispecific antibody, IgG1)
VH: EVQLVESGGGLVQPGGSLRLSCAASGFTFSNYGVTWVRQAPGKGLEWVSMIWADGSTHYASSVKGRFTISRDNSKNTLYLQMNSLRAEDTAVYYCAREWQHGPVAYWGQGTLVTVSSASTKGPSVFPLAPEVQLVESGGGLVQPGGSLRLSCAASGFSLTNNNVNWVRQAPGKGLEWVGGVWAGGATDYNSALKSRFTISRDNSKNTAYLQMNSLRAEDTAVYYCARDGGYSSSTLYAMDAWGQGTLVTVSS
VL: DIQMTQSPSSLSASVGDRVTITCRASQLVSSAVAWYQQKPGKAPKLLIYWASARHTGVPSRFSGSGSGTDFTLTISSLQPEDFATYYCQQHYKTPFTFGQGTKLEIKRTVAAPDIQMTQSPSSLSASVGDRVTITCRASEDIYNALAWYQQKPGKAPKLLIYNTDTLHTGVPSRFSGSGSGTDYTLTISSLQPEDFATYFCQHYFHYPRTFGQGTKVEIKR
N-Terminal VD huTNFα Neutralization Assay IC50 [1]: 0.278 nM
C-Terminal VD NGF Neutralization Assay IC50 (Recombinant Human β-NGF): 0.936 nM

B6: DVD2688 (bispecific antibody, human IgG1, kappa)
heavy: not shown
light: DIQMTQSPSSLSASVGDRVTISCRASQDIRNYLNWYQQKPGKAPKLLIFYTSKLHSGVPSRFSGSGSGTDYTLTISSLQPEDIATYYCQQGLTPPLTFGGGTKVEIKRGGSGGGGSGDIQMTQSPSSLSASVGDRVTITCRASQLVSSAVAWYQQKPGKAPKLLIYWASARHTGVPSRFSGSGSGTDFTLTISSLQPEDFATYYCQQHYKTPFTFGQGTKLEIKRTVAAPSVFIFPPSDEQLKSGTASVVCLLNNFYPREAKVQWKVDNALQSGNSQESVTEQDSKDSTYSLSSTLTLSKADYEKHKVYACEVTHQGLSSPVTKSFNRGEC
IL-13 Neutralization Assay IC50 (Recombinant Human IL-13): 0.094 nM

B7: DVD2689 (bispecific antibody, human IgG1, kappa)
heavy: not shown
light: DIQMTQSPSSLSASVGDRVTISCRASQDIRNYLNWYQQKPGKAPKLLIFYTSKLHSGVPSRFSGSGSGTDYTLTISSLQPEDIATYYCQQGLTPPLTFGGGTKVEIKRTVAAPDIQMTQSPSSLSASVGDRVTITCRASQLVSSAVAWYQQKPGKAPKLLIYWASARHTGVPSRFSGSGSGTDFTLTISSLQPEDFATYYCQQHYKTPFTFGQGTKLEIKRTVAAPSVFIFPPSDEQLKSGTASVVCLLNNFYPREAKVQWKVDNALQSGNSQESVTEQDSKDSTYSLSSTLTLSKADYEKHKVYACEVTHQGLSSPVTKSFNRGEC
IL-13 Neutralization Assay IC50 (Recombinant Human IL-13): 0.147 nM

B8: DVD3047 (bispecific antibody, IgG1)
VH: EVQLVESGGGLVQPGGSLRLSCAASGFSLTNNNVNWVRQAPGKGLEWVGGVWAGGATDYNSALKSRFTISRDNSKNTAYLQMNSLRAEDTAVYYCARDGGYSSSTLYAMDAWGQGTLVTVSSASTKGPSVFPLAPEVQLVQSGAEVKKPGASVKVSCKASGYTFNNYGIIWVRQAPGQGLEWMGWINTYTGKPTYAQKFQGRVTMTTDTSTSTAYMELSSLRSEDTAVYYCARKLFNTVAVTDNAMDYWGQGTTVTVSS
VL: DIQMTQSPSSLSASVGDRVTITCRASEDIYNALAWYQQKPGKAPKLLIYNTDTLHTGVPSRFSGSGSGTDYTLTISSLQPEDFATYFCQHYFHYPRTFGQGTKVEIKRTVAAPDIQMTQSPSSLSASVGDRVTITCRASQDIENYLNWYQQKPGKAPKLLIYYTSRLQSGVPSRFSGSGSGTDFTLTISSLQPEDFATYFCQQGNTQPPTFGQGTKLEIKR
N-Terminal VD NGF Neutralization Assay IC50 (Recombinant Human β-NGF): > 10 nM

B9: DVD3159 (bispecific antibody, human IgG1, kappa)
heavy: not shown
light: DIQMTQSPSSLSASVGDRVTITCRASQGIRNYLNWYQQKPGKAPKLLIYYASNLEVGVPSRFSGSGSGTDYTLTISSLQPEDFATYYCQQDNRFPYTFGGGTKVEIKRTVAAPDIQMTQSPSSLSASVGDRVTITCKASQLVSSAVAWYQQKPGKAPKLLIYWASTLHTGVPSRFSGSGSGTDFTLTISSLQPEDFATYYCQQHYRTPFTFGQGTKLEIKRTVAAPSVFIFPPSDEQLKSGTASVVCLLNNFYPREAKVQWKVDNALQSGNSQESVTEQDSKDSTYSLSSTLTLSKADYEKHKVYACEVTHQGLSSPVTKSFNRGEC
IL-13 Neutralization Assay IC50 (Recombinant Human IL-13): 0.087 nM

B10: DVD3121 (bispecific antibody, human IgG1, kappa)
heavy: not shown
light: DVVMTQSPLSLPVTLGQPASISCRSSQSLVHSHGNTYLHWYQQRPGQSPRLLIYTVSNRFSGVPDRFSGSGSGTDFTLKISRVEAEDVGVYYCSQSTHVPYTFGGGTKVEIKRTVAAPSVFIFPPDIQMTQSPSSLSASVGDRVTITCRASQDIENYLNWYQQKPGKAPKLLIYYTSRLQSGVPSRFSGSGSGTDFTLTISSLQPEDFATYFCQQGNTQPPTFGQGTKLEIKRTVAAPSVFIFPPSDEQLKSGTASVVCLLNNFYPREAKVQWKVDNALQSGNSQESVTEQDSKDSTYSLSSTLTLSKADYEKHKVYACEVTHQGLSSPVTKSFNRGEC
IL-13 Neutralization Assay IC50 (Recombinant Human IL-13): 0.013 nM

B11: DVD3158 (bispecific antibody, human IgG1, kappa)
heavy: not shown
light: DIQMTQSPSSLSASVGDRVTITCRASQGIRNYLNWYQQKPGKAPKLLIYYASNLEVGVPSRFSGSGSGTDYTLTISSLQPEDFATYYCQQDNRFPYTFGGGTKVEIKRGGSGGGGSGDIQMTQSPSSLSASVGDRVTITCKASQLVSSAVAWYQQKPGKAPKLLIYWASTLHTGVPSRFSGSGSGTDFTLTISSLQPEDFATYYCQQHYRTPFTFGQGTKLEIKRTVAAPSVFIFPPSDEQLKSGTASVVCLLNNFYPREAKVQWKVDNALQSGNSQESVTEQDSKDSTYSLSSTLTLSKADYEKHKVYACEVTHQGLSSPVTKSFNRGEC
IL-13 Neutralization Assay IC50 (Recombinant Human IL-13): 0.137 nM

B12: AB267 (antibody, V domains shown)
VH: EVQLVESGGGLVQPGGSLRLSCAASGFSLTNNNVNWVRQAPGKGLEWVGGVWAGGATDYNSALKSRFTISRDNSKNTAYLQMNSLRAEDTAVYYCARDGGYSSSTLYAMDAWGQGTLVTVSS
VL: DIQMTQSPSSLSASVGDRVTITCRASEDIYNALAWYQQKPGKAPKLLIYNTDTLHTGVPSRFSGSGSGTDYTLTISSLQPEDFATYFCQHYFHYPRTFGQGTKVEIKR
NGF Neutralization Assay IC50 (Recombinant Human β-NGF): 0.007 nM

B13: DVD3119 (bispecific antibody, human IgG1, kappa)
heavy: not shown
light: DVVMTQSPLSLPVTLGQPASISCRSSQSLVHSHGNTYLHWYQQRPGQSPRLLIYTVSNRFSGVPDRFSGSGSGTDFTLKISRVEAEDVGVYYCSQSTHVPYTFGGGTKVEIKRTVAAPDIQMTQSPSSLSASVGDRVTITCRASQDIENYLNWYQQKPGKAPKLLIYYTSRLQSGVPSRFSGSGSGTDFTLTISSLQPEDFATYFCQQGNTQPPTFGQGTKLEIKRTVAAPSVFIFPPSDEQLKSGTASVVCLLNNFYPREAKVQWKVDNALQSGNSQESVTEQDSKDSTYSLSSTLTLSKADYEKHKVYACEVTHQGLSSPVTKSFNRGEC
IL-13 Neutralization Assay IC50 (Recombinant Human IL-13): 0.051 nM

B14: DVD3122 (bispecific antibody, human IgG1, kappa)
heavy: not shown
light: DVVMTQSPLSLPVTLGQPASISCRSSQSLVHSHGNTYLHWYQQRPGQSPRLLIYTVSNRFSGVPDRFSGSGSGTDFTLKISRVEAEDVGVYYCSQSTHVPYTFGGGTKVEIKRTVAAPDIQMTQSPSSLSASVGDRVTITCRASQDIENYLNWYQQKPGKAPKLLIYYTSRLQSGVPSRFSGSGSGTDFTLTISSLQPEDFATYFCQQGNTQPPTFGQGTKLEIKRTVAAPSVFIFPPSDEQLKSGTASVVCLLNNFYPREAKVQWKVDNALQSGNSQESVTEQDSKDSTYSLSSTLTLSKADYEKHKVYACEVTHQGLSSPVTKSFNRGEC
IL-13 Neutralization Assay IC50 (Recombinant Human IL-13): 0.011 nM
